What all share (details): Homo sapiens
Compound in data set [1]: N=C(N)NCCC[C@H](NC(=O)[C@H](Cc1c[nH]c2ccccc12)NC(=O)[C@@H](N)CS)C(=O)O
As to the kind of experiment: Allosteric activation of SIRT1 (unknown origin) expressed in bacterial expression system assessed as Vmax for substrate at 40 uM using Fluorophore labeled-Arg-His-Lys-Lys (Ac) as substrate incubated for 30 mins in presence of NAD+ by fluorimetric method (reference value: 1666.67 uM).

Compound in data set [2]: N=C(N)NCCC[C@H](NC(=O)[C@H](Cc1c[nH]c2ccccc12)NC(=O)[C@@H](N)CS)C(=O)O
As to the kind of experiment: Allosteric activation of SIRT1 (unknown origin) expressed in bacterial expression system assessed as Vmax for substrate at 80 uM using Fluorophore labeled-Arg-His-Lys-Lys (Ac) as substrate incubated for 30 mins in presence of NAD+ by fluorimetric method (reference value: 1666.67 uM).

Compound in data set [3]: N=C(N)NCCC[C@H](NC(=O)[C@H](Cc1c[nH]c2ccccc12)NC(=O)[C@@H](N)CS)C(=O)O
The data set can be described thus: Allosteric activation of SIRT1 (unknown origin) expressed in bacterial expression system assessed as Vmax for substrate at 120 uM using Fluorophore labeled-Arg-His-Lys-Lys (Ac) as substrate incubated for 30 mins in presence of NAD+ by fluorimetric method (reference value: 1666.67 uM).

Compound in data set [4]: N=C(N)NCCC[C@H](NC(=O)[C@H](Cc1c[nH]c2ccccc12)NC(=O)[C@@H](N)CS)C(=O)O
As to the kind of experiment: Allosteric activation of SIRT1 (unknown origin) expressed in bacterial expression system assessed as Vmax for substrate at 160 uM using Fluorophore labeled-Arg-His-Lys-Lys (Ac) as substrate incubated for 30 mins in presence of NAD+ by fluorimetric method (reference value: 1666.67 uM).

Compound in data set [5]: N=C(N)NCCC[C@H](NC(=O)[C@H](Cc1c[nH]c2ccccc12)NC(=O)[C@@H](N)CS)C(=O)O
As to the kind of experiment: Allosteric activation of SIRT1 (unknown origin) expressed in bacterial expression system assessed as apparent Km for substrate at 40 uM using Fluorophore labeled-Arg-His-Lys-Lys (Ac) as substrate incubated for 30 mins in presence of NAD+ by fluorimetric method (reference value: 507 uM).

Compound in data set [6]: N=C(N)NCCC[C@H](NC(=O)[C@H](Cc1c[nH]c2ccccc12)NC(=O)[C@@H](N)CS)C(=O)O
The data set can be described thus: Allosteric activation of SIRT1 (unknown origin) expressed in bacterial expression system assessed as apparent Km for substrate at 80 uM using Fluorophore labeled-Arg-His-Lys-Lys (Ac) as substrate incubated for 30 mins in presence of NAD+ by fluorimetric method (reference value: 507 uM).

Compound in data set [7]: N=C(N)NCCC[C@H](NC(=O)[C@H](Cc1c[nH]c2ccccc12)NC(=O)[C@@H](N)CS)C(=O)O
The data set can be described thus: Allosteric activation of SIRT1 (unknown origin) expressed in bacterial expression system assessed as apparent Km for substrate at 120 uM using Fluorophore labeled-Arg-His-Lys-Lys (Ac) as substrate incubated for 30 mins in presence of NAD+ by fluorimetric method (reference value: 507 uM).

Compound in data set [8]: N=C(N)NCCC[C@H](NC(=O)[C@H](Cc1c[nH]c2ccccc12)NC(=O)[C@@H](N)CS)C(=O)O
As to the kind of experiment: Allosteric activation of SIRT1 (unknown origin) expressed in bacterial expression system assessed as apparent Km for substrate at 160 uM using Fluorophore labeled-Arg-His-Lys-Lys (Ac) as substrate incubated for 30 mins in presence of NAD+ by fluorimetric method (reference value: 507 uM).

Here are results for one protein from ChEMBL document CHEMBL4007386, “Design, synthesis of allosteric peptide activator for human SIRT1 and its biological evaluation in cellular model of Alzheimer's disease” (Eur J Med Chem, 2017).

What is called Km is the substrate concentration at which the rate is half of its maximum.

B1: NAD-dependent protein deacetylase sirtuin-1 (Homo sapiens), Q96EB6 (protein)
chain: MADEAALALQPGGSPSAAGADREAASSPAGEPLRKRPRRDGPGLERSPGEPGGAAPEREVPAAARGCPGAAAAALWREAEAEAAAAGGEQEAQATAAAGEGDNGPGLQGPSREPPLADNLYDEDDDDEGEEEEEAAAAAIGYRDNLLFGDEIITNGFHSCESDEEDRASHASSSDWTPRPRIGPYTFVQQHLMIGTDPRTILKDLLPETIPPPELDDMTLWQIVINILSEPPKRKKRKDINTIEDAVKLLQECKKIIVLTGAGVSVSCGIPDFRSRDGIYARLAVDFPDLPDPQAMFDIEYFRKDPRPFFKFAKEIYPGQFQPSLCHKFIALSDKEGKLLRNYTQNIDTLEQVAGIQRIIQCHGSFATASCLICKYKVDCEAVRGDIFNQVVPRCPRCPADEPLAIMKPEIVFFGENLPEQFHRAMKYDKDEVDLLIVIGSSLKVRPVALIPSSIPHEVPQILINREPLPHLHFDVELLGDCDVIINELCHRLGGEYAKLCCNPVKLSEITEKPPRTQKELAYLSELPPTPLHVSEDSSSPERTSPPDSSVIVTLLDQAAKSNDDLDVSESKGCMEEKPQEVQTSRNVESIAEQMENPDLKNVGSSTGEKNERTSVAGTVRKCWPNRVAKEQISRRLDGNQYLFLPPNRYIFHGAEVYSDSEDDVLSSSSCGSNSDSGTCQSPSLEEPMEDESEIEEFYNGLEDEPDVPERAGGAGFGTDGDDQEAINEAISVKQEVTDMNYPSNKS
On to B1, for which the Vmax in data set [1] was found to be 1430 µM; in data set [2], 1250 µM; in data set [3], 1110 µM; in data set [4], 1110 µM. Besides, the Km came out at 236 µM in data set [5], 168 µM in data set [6], 72 µM in data set [7] and 75 µM in data set [8].
